T1: Human CD3eg linker (human)
T1 construct: Single chain: epsilon and gamma subunits of human CD3 joined by a 29-mer linker, Flag-tag at the C-terminus; also called recombinant human CD3
T1 chain: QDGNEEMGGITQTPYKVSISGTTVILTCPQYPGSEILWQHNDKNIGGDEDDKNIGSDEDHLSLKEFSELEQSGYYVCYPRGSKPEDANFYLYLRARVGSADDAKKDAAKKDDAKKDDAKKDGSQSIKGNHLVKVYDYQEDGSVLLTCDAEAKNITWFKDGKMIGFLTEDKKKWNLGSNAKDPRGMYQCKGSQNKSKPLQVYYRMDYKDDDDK


Biological target: T1, Human CD3eg linker
Assay: Biacore SPR, vs template H183/L072

Binder | fold change of affinity [fold]
H183/L072 VH N53T (antibody, name in Kabat numbering, V domains shown) VH: QVQLVESGGGLVQPGRSLRLSCAASGFTFSNAWMHWVRQAPGKGLEWVAQIKDKGTAYAAYYAPSVKGRFTISRDDSKNSIYLQMNSLKTEDTAVYYCHYVHYASASTVLPAFGVDAWGQGTTVTVSS VL: DIVMTQSPLSLPVTPGEPASISCQASQELVHMNRNTYLHWYQQKPGQAPRLLIYKVSNRFPGVPDRFSGSGSGTDFTLKISRVEAEDVGVYYCAQGTSVPFTFGQGTKLEIK | 0.6
H183/L072 VH P61A (antibody, name in Kabat numbering, V domains shown) VH: QVQLVESGGGLVQPGRSLRLSCAASGFTFSNAWMHWVRQAPGKGLEWVAQIKDKGNAYAAYYAASVKGRFTISRDDSKNSIYLQMNSLKTEDTAVYYCHYVHYASASTVLPAFGVDAWGQGTTVTVSS VL: DIVMTQSPLSLPVTPGEPASISCQASQELVHMNRNTYLHWYQQKPGQAPRLLIYKVSNRFPGVPDRFSGSGSGTDFTLKISRVEAEDVGVYYCAQGTSVPFTFGQGTKLEIK | 1.9
H183/L072 VH P61I (antibody, name in Kabat numbering, V domains shown) VH: QVQLVESGGGLVQPGRSLRLSCAASGFTFSNAWMHWVRQAPGKGLEWVAQIKDKGNAYAAYYAISVKGRFTISRDDSKNSIYLQMNSLKTEDTAVYYCHYVHYASASTVLPAFGVDAWGQGTTVTVSS VL: DIVMTQSPLSLPVTPGEPASISCQASQELVHMNRNTYLHWYQQKPGQAPRLLIYKVSNRFPGVPDRFSGSGSGTDFTLKISRVEAEDVGVYYCAQGTSVPFTFGQGTKLEIK | 1.8
H183/L072 VH Q50A (antibody, name in Kabat numbering, V domains shown) VH: QVQLVESGGGLVQPGRSLRLSCAASGFTFSNAWMHWVRQAPGKGLEWVAAIKDKGNAYAAYYAPSVKGRFTISRDDSKNSIYLQMNSLKTEDTAVYYCHYVHYASASTVLPAFGVDAWGQGTTVTVSS VL: DIVMTQSPLSLPVTPGEPASISCQASQELVHMNRNTYLHWYQQKPGQAPRLLIYKVSNRFPGVPDRFSGSGSGTDFTLKISRVEAEDVGVYYCAQGTSVPFTFGQGTKLEIK | 0
H183/L072 VH Q50G (antibody, name in Kabat numbering, V domains shown) VH: QVQLVESGGGLVQPGRSLRLSCAASGFTFSNAWMHWVRQAPGKGLEWVAGIKDKGNAYAAYYAPSVKGRFTISRDDSKNSIYLQMNSLKTEDTAVYYCHYVHYASASTVLPAFGVDAWGQGTTVTVSS VL: DIVMTQSPLSLPVTPGEPASISCQASQELVHMNRNTYLHWYQQKPGQAPRLLIYKVSNRFPGVPDRFSGSGSGTDFTLKISRVEAEDVGVYYCAQGTSVPFTFGQGTKLEIK | 0
H183/L072 VH N53Y (antibody, name in Kabat numbering, V domains shown) VH: QVQLVESGGGLVQPGRSLRLSCAASGFTFSNAWMHWVRQAPGKGLEWVAQIKDKGYAYAAYYAPSVKGRFTISRDDSKNSIYLQMNSLKTEDTAVYYCHYVHYASASTVLPAFGVDAWGQGTTVTVSS VL: DIVMTQSPLSLPVTPGEPASISCQASQELVHMNRNTYLHWYQQKPGQAPRLLIYKVSNRFPGVPDRFSGSGSGTDFTLKISRVEAEDVGVYYCAQGTSVPFTFGQGTKLEIK | 0.9
H183/L072 VH Q50I (antibody, name in Kabat numbering, V domains shown) VH: QVQLVESGGGLVQPGRSLRLSCAASGFTFSNAWMHWVRQAPGKGLEWVAIIKDKGNAYAAYYAPSVKGRFTISRDDSKNSIYLQMNSLKTEDTAVYYCHYVHYASASTVLPAFGVDAWGQGTTVTVSS VL: DIVMTQSPLSLPVTPGEPASISCQASQELVHMNRNTYLHWYQQKPGQAPRLLIYKVSNRFPGVPDRFSGSGSGTDFTLKISRVEAEDVGVYYCAQGTSVPFTFGQGTKLEIK | 0.4
H183/L072 VH P100eA (antibody, name in Kabat numbering, V domains shown) VH: QVQLVESGGGLVQPGRSLRLSCAASGFTFSNAWMHWVRQAPGKGLEWVAQIKDKGNAYAAYYAPSVKGRFTISRDDSKNSIYLQMNSLKTEDTAVYYCHYVHYASASTVLAAFGVDAWGQGTTVTVSS VL: DIVMTQSPLSLPVTPGEPASISCQASQELVHMNRNTYLHWYQQKPGQAPRLLIYKVSNRFPGVPDRFSGSGSGTDFTLKISRVEAEDVGVYYCAQGTSVPFTFGQGTKLEIK | 1.2
H183/L072 VH N53W (antibody, name in Kabat numbering, V domains shown) VH: QVQLVESGGGLVQPGRSLRLSCAASGFTFSNAWMHWVRQAPGKGLEWVAQIKDKGWAYAAYYAPSVKGRFTISRDDSKNSIYLQMNSLKTEDTAVYYCHYVHYASASTVLPAFGVDAWGQGTTVTVSS VL: DIVMTQSPLSLPVTPGEPASISCQASQELVHMNRNTYLHWYQQKPGQAPRLLIYKVSNRFPGVPDRFSGSGSGTDFTLKISRVEAEDVGVYYCAQGTSVPFTFGQGTKLEIK | 1.2
H183/L072 VH P100eL (antibody, name in Kabat numbering, V domains shown) VH: QVQLVESGGGLVQPGRSLRLSCAASGFTFSNAWMHWVRQAPGKGLEWVAQIKDKGNAYAAYYAPSVKGRFTISRDDSKNSIYLQMNSLKTEDTAVYYCHYVHYASASTVLLAFGVDAWGQGTTVTVSS VL: DIVMTQSPLSLPVTPGEPASISCQASQELVHMNRNTYLHWYQQKPGQAPRLLIYKVSNRFPGVPDRFSGSGSGTDFTLKISRVEAEDVGVYYCAQGTSVPFTFGQGTKLEIK | 1.3
H183/L072 VH P100eI (antibody, name in Kabat numbering, V domains shown) VH: QVQLVESGGGLVQPGRSLRLSCAASGFTFSNAWMHWVRQAPGKGLEWVAQIKDKGNAYAAYYAPSVKGRFTISRDDSKNSIYLQMNSLKTEDTAVYYCHYVHYASASTVLIAFGVDAWGQGTTVTVSS VL: DIVMTQSPLSLPVTPGEPASISCQASQELVHMNRNTYLHWYQQKPGQAPRLLIYKVSNRFPGVPDRFSGSGSGTDFTLKISRVEAEDVGVYYCAQGTSVPFTFGQGTKLEIK | 1.4
H183/L072 VH Q50D (antibody, name in Kabat numbering, V domains shown) VH: QVQLVESGGGLVQPGRSLRLSCAASGFTFSNAWMHWVRQAPGKGLEWVADIKDKGNAYAAYYAPSVKGRFTISRDDSKNSIYLQMNSLKTEDTAVYYCHYVHYASASTVLPAFGVDAWGQGTTVTVSS VL: DIVMTQSPLSLPVTPGEPASISCQASQELVHMNRNTYLHWYQQKPGQAPRLLIYKVSNRFPGVPDRFSGSGSGTDFTLKISRVEAEDVGVYYCAQGTSVPFTFGQGTKLEIK | 0
H183/L072 VH Q50E (antibody, name in Kabat numbering, V domains shown) VH: QVQLVESGGGLVQPGRSLRLSCAASGFTFSNAWMHWVRQAPGKGLEWVAEIKDKGNAYAAYYAPSVKGRFTISRDDSKNSIYLQMNSLKTEDTAVYYCHYVHYASASTVLPAFGVDAWGQGTTVTVSS VL: DIVMTQSPLSLPVTPGEPASISCQASQELVHMNRNTYLHWYQQKPGQAPRLLIYKVSNRFPGVPDRFSGSGSGTDFTLKISRVEAEDVGVYYCAQGTSVPFTFGQGTKLEIK | 0
H183/L072 VH P61L (antibody, name in Kabat numbering, V domains shown) VH: QVQLVESGGGLVQPGRSLRLSCAASGFTFSNAWMHWVRQAPGKGLEWVAQIKDKGNAYAAYYALSVKGRFTISRDDSKNSIYLQMNSLKTEDTAVYYCHYVHYASASTVLPAFGVDAWGQGTTVTVSS VL: DIVMTQSPLSLPVTPGEPASISCQASQELVHMNRNTYLHWYQQKPGQAPRLLIYKVSNRFPGVPDRFSGSGSGTDFTLKISRVEAEDVGVYYCAQGTSVPFTFGQGTKLEIK | 1.8
H183/L072 VH Q50H (antibody, name in Kabat numbering, V domains shown) VH: QVQLVESGGGLVQPGRSLRLSCAASGFTFSNAWMHWVRQAPGKGLEWVAHIKDKGNAYAAYYAPSVKGRFTISRDDSKNSIYLQMNSLKTEDTAVYYCHYVHYASASTVLPAFGVDAWGQGTTVTVSS VL: DIVMTQSPLSLPVTPGEPASISCQASQELVHMNRNTYLHWYQQKPGQAPRLLIYKVSNRFPGVPDRFSGSGSGTDFTLKISRVEAEDVGVYYCAQGTSVPFTFGQGTKLEIK | 0.3
H183/L072 VH Q50K (antibody, name in Kabat numbering, V domains shown) VH: QVQLVESGGGLVQPGRSLRLSCAASGFTFSNAWMHWVRQAPGKGLEWVAKIKDKGNAYAAYYAPSVKGRFTISRDDSKNSIYLQMNSLKTEDTAVYYCHYVHYASASTVLPAFGVDAWGQGTTVTVSS VL: DIVMTQSPLSLPVTPGEPASISCQASQELVHMNRNTYLHWYQQKPGQAPRLLIYKVSNRFPGVPDRFSGSGSGTDFTLKISRVEAEDVGVYYCAQGTSVPFTFGQGTKLEIK | 0
H183/L072 VH P61M (antibody, name in Kabat numbering, V domains shown) VH: QVQLVESGGGLVQPGRSLRLSCAASGFTFSNAWMHWVRQAPGKGLEWVAQIKDKGNAYAAYYAMSVKGRFTISRDDSKNSIYLQMNSLKTEDTAVYYCHYVHYASASTVLPAFGVDAWGQGTTVTVSS VL: DIVMTQSPLSLPVTPGEPASISCQASQELVHMNRNTYLHWYQQKPGQAPRLLIYKVSNRFPGVPDRFSGSGSGTDFTLKISRVEAEDVGVYYCAQGTSVPFTFGQGTKLEIK | 1.8
H183/L072 VH Q50F (antibody, name in Kabat numbering, V domains shown) VH: QVQLVESGGGLVQPGRSLRLSCAASGFTFSNAWMHWVRQAPGKGLEWVAFIKDKGNAYAAYYAPSVKGRFTISRDDSKNSIYLQMNSLKTEDTAVYYCHYVHYASASTVLPAFGVDAWGQGTTVTVSS VL: DIVMTQSPLSLPVTPGEPASISCQASQELVHMNRNTYLHWYQQKPGQAPRLLIYKVSNRFPGVPDRFSGSGSGTDFTLKISRVEAEDVGVYYCAQGTSVPFTFGQGTKLEIK | 0.3
H183/L072 VH P100eM (antibody, name in Kabat numbering, V domains shown) VH: QVQLVESGGGLVQPGRSLRLSCAASGFTFSNAWMHWVRQAPGKGLEWVAQIKDKGNAYAAYYAPSVKGRFTISRDDSKNSIYLQMNSLKTEDTAVYYCHYVHYASASTVLMAFGVDAWGQGTTVTVSS VL: DIVMTQSPLSLPVTPGEPASISCQASQELVHMNRNTYLHWYQQKPGQAPRLLIYKVSNRFPGVPDRFSGSGSGTDFTLKISRVEAEDVGVYYCAQGTSVPFTFGQGTKLEIK | 1.8
H183/L072 VH N53V (antibody, name in Kabat numbering, V domains shown) VH: QVQLVESGGGLVQPGRSLRLSCAASGFTFSNAWMHWVRQAPGKGLEWVAQIKDKGVAYAAYYAPSVKGRFTISRDDSKNSIYLQMNSLKTEDTAVYYCHYVHYASASTVLPAFGVDAWGQGTTVTVSS VL: DIVMTQSPLSLPVTPGEPASISCQASQELVHMNRNTYLHWYQQKPGQAPRLLIYKVSNRFPGVPDRFSGSGSGTDFTLKISRVEAEDVGVYYCAQGTSVPFTFGQGTKLEIK | 0.5
